Where two headings read alike, the source gives them in different places. Values belong to the binder of their own block, whether it stands above or below them.
Legend:
[1] = biological target: recombinant human IL-33 (R&D Systems 3625-IL) (human) (UniProt O95760); experiment: cell-based or functional assay
[2] = biological target: recombinant human IL-33 (R&D Systems 3625-IL), reduced with DTT (human) (UniProt O95760); experiment: cell-based or functional assay
[3] = biological target: recombinant human IL-33 (R&D Systems 3625-IL), reduced with DTT (human) (UniProt O95760); experiment: cell-based or functional assay; remark: listed apart in the source
[4] = biological target: T1, biotinylated human IL-33 wild-type (WT), reduced with 3 mM DTT (human) (UniProt O95760); experiment: KinExA solution affinity, fixed antigen format, global fit
T1 sequence (biotinylated (site not stated), looked up): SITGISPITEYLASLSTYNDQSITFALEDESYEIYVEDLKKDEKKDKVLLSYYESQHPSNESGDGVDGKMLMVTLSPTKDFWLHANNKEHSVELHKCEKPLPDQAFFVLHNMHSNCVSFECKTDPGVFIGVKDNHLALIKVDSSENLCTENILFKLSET

[5] = biological target: recombinant human IL-13 R110Q (human), P35225; experiment: cell-based or functional assay
recombinant human IL-13 R110Q (human), P35225, sequence (P35225 35-146, stated change not applied): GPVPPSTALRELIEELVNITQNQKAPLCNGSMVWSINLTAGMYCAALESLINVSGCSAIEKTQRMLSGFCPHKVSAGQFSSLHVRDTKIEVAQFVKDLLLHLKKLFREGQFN

IC50 (pM) HEK-Blue IL-33 SEAP (mean) [1]: 56.4 pM
B1: IL33-310 (antibody, from a related filing, V domains shown)
VH: EVQLVESGGGLVQPGGSLRLSCAASGFTFSSFSMSWVRQAPGKGLEWVATISGGKTFTDYVDSVKGRFTISRDDSKNTLYLQMNSLRAEDTAVYYCTRANYGNWFFEVWGQGTLVTVSS
VL: EIVLTQSPATLSLSPGERATLSCRASESVAKYGLSLLNWFQQKPGQPPRLLIFAASNRGSGIPARFSGSGSGTDFTLTISSLEPEDFAVYYCQQSKEVPFTFGQGTKVEIKR

IC50 [nM] versus reduced human IL-33 (R&D), IC50 (AVE) [2]: 0.018 nM
IC50 [nM] versus reduced human IL-33 (R&D), IC50 (AVE) [3]: 0.011 nM
Kd [4]: 0.00066 nM
B2: IL33-0352 (Clinical Benchmark) (antibody, INN chains, looked up, V domains shown)
VH: EVQLVESGGNLEQPGGSLRLSCTASGFTFSRSAMNWVRRAPGKGLEWVSGISGSGGRTYYADSVKGRFTISRDNSKNTLYLQMNSLSAEDTAAYYCAKDSYTTSWYGGMDVWGHGTTVTVSS
VL: DIQMTQSPSSVSASVGDRVTITCRASQGIFSWLAWYQQKPGKAPKLLIYAASSLQSGVPSRFSGSGSGTDFTLTISSLQPEDFAIYYCQQANSVPITFGQGTRLEIK
modifications: IgG1 effector-null

IC50 (pM) HEK-Blue IL-33 SEAP (mean) [1]: 15.9 pM
B3: IL33-265 (antibody, from a related filing, V domains shown)
VH: EVQLVESGGNLEQPGGSLRLSCTASGFTFSRSAMNWVRRAPGKGLEWVSGISGSGGRTYYADSVKGRFTISRDNSKNTLYLQMNSLSAEDTAAYYCAKDSYTTSWYGGMDVWGHGTTVTVSS
VL: DIQMTQSPSSVSASVGDRVTITCRASQGIFSWLAWYQQKPGKAPKLLIYAASSLQSGVPSRFSGSGSGTDFTLTISSLQPEDFAIYYCQQANSVPITFGQGTRLEIKR

IC50 (median), Monocyte CD23 expression [5]: 0.0101 nM
IC50 (median), STAT6 phosphorylation in HT-29 cells [5]: 0.104 nM
B4: IL13-0001 (antibody, human IgG1, kappa)
heavy: EVQLVESGGGLVQPGGSLRLSCAASGFTFSSYAMSWVRQAPGKGLEWVASISSGDTTYYPDSVKGRFTISRDNAKNSLYLQMNSLRAEDTAVYYCARNEGYYFGLTLWGQGTLVTVSSASTKGPSVFPLAPSSKSTSGGTAALGCLVKDYFPEPVTVSWNSGALTSGVHTFPAVLQSSGLYSLSSVVTVPSSSLGTQTYICNVNHKPSNTKVDKKVEPKSCDKTHTCPPCPAPEAAGAPSVFLFPPKPKDTLMISRTPEVTCVVVDVSHEDPEVKFNWYVDGVEVHNAKTKPREEQYNSTYRVVSVLTVLHQDWLNGKEYKCKVSNKALPAPIEKTISKAKGQPREPQVYTLPPSREEMTKNQVSLTCLVKGFYPSDIAVEWESNGQPENNYKTTPPVLDSDGSFFLYSKLTVDKSRWQQGNVFSCSVMHEALHNHYTQKSLSLSPGK
light: DIQMTQSPSSLSASVGDRVTITCKASESVDHFGWSLVHWYQQKPGKAPKLLIYRASNLESGVPSRFSGSGSGTDFTLTISSLQPEDFATYYCQQSNEDPWTFGGGTKVEIKRTVAAPSVFIFPPSDEQLKSGTASVVCLLNNFYPREAKVQWKVDNALQSGNSQESVTEQDSKDSTYSLSSTLTLSKADYEKHKVYACEVTHQGLSSPVTKSFNRGEC

— patent US20240117030A1
